Measurements from US20220023420A1 (PRECIGEN, published 2022).
Residue numbers refer to the chain shown, from its start. Names may count otherwise. Values belong to the binder of their own block, whether it stands above or below them.

Columns and labels:
TGF-β3 = biological target: T1, TGF-β3 (UniProt P10600 301-412); test: SPR (Biacore 3000), fusion protein immobilized on CM5, TGF-β injected
T1 sequence (looked up): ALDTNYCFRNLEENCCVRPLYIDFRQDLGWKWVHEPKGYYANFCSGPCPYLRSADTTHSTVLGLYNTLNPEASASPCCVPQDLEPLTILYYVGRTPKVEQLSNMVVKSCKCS
Experimental: (§1) Surface plasma resonance (SPR) analysis was performed using Biacore3000, CM5 chip, an amine-coupling kit, 10×HBS-P running buffer and Glycine for regeneration (GE Healthcare). […] Dissociation was allowed to proceed followed by a pulse of 10 mM Glycine (pH 1.5) for regeneration of the chip surface.

TGF-β2 = biological target: T2, TGF-β2 (UniProt P61812 303-414); test: as above
T2 sequence (looked up): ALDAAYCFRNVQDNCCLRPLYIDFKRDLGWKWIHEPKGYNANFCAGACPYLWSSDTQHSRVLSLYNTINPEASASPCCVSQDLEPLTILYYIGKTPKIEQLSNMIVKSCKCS
Experimental: as §1

TGF-β1 [1] = biological target: T3, TGF-β1 (UniProt P01137 279-390); test: as above
T3 construct: also called TGF-b1
Experimental: as §1

TGF-β1 [2] = biological target: T3, TGF-β1; test: cell-based or functional assay
TGF-β1 [3] = biological target: T3, TGF-β1; test: cell-based or functional assay; remark: listed apart in the source
PD-1 Fc fusion protein = biological target: T4, PD-1 Fc fusion protein (UniProt Q15116 25-167, limits assumed); test: SPR (Biacore), PD-1-Fc antigen on CM5, 1:1 Langmuir with mass transfer
T4 construct: also called PD-1-Fc antigen; PD-1 fused to human Fc region; not shown: human Fc region
Experimental: PD-1-Fc antigen and reference antigen was immobilized on Biacore CM5 surface. […] Kinetics data was evaluated for 1:1 model: Langmuir with mass transfer.

T3 sequence (P01137 279-390 limits assumed): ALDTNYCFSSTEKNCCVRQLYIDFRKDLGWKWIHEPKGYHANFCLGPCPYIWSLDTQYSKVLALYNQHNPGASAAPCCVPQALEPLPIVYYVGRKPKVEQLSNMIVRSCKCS
T4 sequence (Q15116 25-167 limits assumed): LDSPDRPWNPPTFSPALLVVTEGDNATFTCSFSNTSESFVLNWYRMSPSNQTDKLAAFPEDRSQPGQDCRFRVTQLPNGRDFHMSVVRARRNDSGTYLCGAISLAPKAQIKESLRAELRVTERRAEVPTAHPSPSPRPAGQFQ

B1: Anti-PD-1(VH6-VL5) IgG4-TGFβRII (other)
heavy: QVQLVESGGGVVQPGRSLRLDCKASGITFSNSGMHWVRQAPGKGLEWVAVIWYDGSKRYYADSVKGRFTISRDNSKNTLFLQMNSLRAEDTAVYYCATNDDYWGQGTLVTVSSASTKGPSVFPLAPCSRSTSESTAALGCLVKDYFPEPVTVSWNSGALTSGVHTFPAVLQSSGLYSLSSVVTVPSSSLGTKTYTCNVDHKPSNTKVDKRVESKYGPPCPSCPAPEFLGGPSVFLFPPKPKDTLMISRTPEVTCVVVDVSQEDPEVQFNWYVDGVEVHNAKTKPREEQFNSTYRVVSVLTVLHQDWLNGKEYKCKVSNKGLPSSIEKTISKAKGQPREPQVYTLPPSQEEMTKNQVSLTCLVKGFYPSDIAVEWESNGQPENNYKTTPPVLDSDGSFFLYSRLTVDKSRWQEGNVFSCSVMHEALHNHYTQKSLSLSPGKGGGGSGGGGSIPPHVQKSVNNDMIVTDNNGAVKFPQLCKFCDVRFSTCDNQKSCMSNCSITSICEKPQEVCVAVWRKNDENITLETVCHDPKLPYHDFILEDAASPKCIMKEKKKPGETFFMCSCSSDECNDNIIFSEEYNTSNPD
light: not shown
notes: also called anti-PD-1 IgG4 antibody (VH6-VL5)-TGFβRII fusion protein; VH6-IgG4(wt)-linker-ECD with VL5
Kd (TGF-β3): 2.19 pM
Kd (TGF-β2): 0.859 nM
Kd (TGF-β1 [1]): 5.22 pM

B2: Anti-PD-1 (VL5-VH6).IgG4 (antibody, V domains shown)
VH: QVQLVESGGGVVQPGRSLRLDCKASGITFSNSGMHWVRQAPGKGLEWVAVIWYDGSKRYYADSVKGRFTISRDNSKNTLFLQMNSLRAEDTAVYYCATNDDYWGQGTLVTVSS
VL: EIVLTQSPATLSLSPGERATLSCRASQSVSSYLAWYQQKPGQAPRLLIYDASNRATGIPARFSGSGSGTDFTLTISSLEPEDFAVYYCQQSSNWPRTFGQGTKVEIK
IC50-inhibition of TGF-β1 induced reporter gene activity (HEK-Blue TGF-β cells, SEAP) (TGF-β1 [2]): 9 pM

B4: Anti-PD-1 (VL5-VH6).IgG4-Linker12 -TGFbRII (other)
heavy (part 1 of 2): B2 VH
heavy (part 2 of 2): DPVLEREDKVTTSKNPGSIPPHVQKSVNNDMIVTDNNGAVKFPQLCKFCDVRFSTCDNQKSCMSNCSITSICEKPQEVCVAVWRKNDENITLETVCHDPKLPYHDFILEDAASPKCIMKEKKKPGETFFMCSCSSDECNDNIIFSEEYNTSNPD
VL: B2 VL
IC50, TGF-β1 neutralization activity (HEK-Blue TGF-β reporter cells) (TGF-β1 [3]): 2.7 pM

B5: Anti-PD-1 (VL5-VH6).IgG4-Linker7 -TGFbRII (other)
heavy (part 1 of 2): B2 VH
heavy (part 2 of 2): DPGSGSVPLGSGSNPGSIPPHVQKSVNNDMIVTDNNGAVKFPQLCKFCDVRFSTCDNQKSCMSNCSITSICEKPQEVCVAVWRKNDENITLETVCHDPKLPYHDFILEDAASPKCIMKEKKKPGETFFMCSCSSDECNDNIIFSEEYNTSNPD
VL: B2 VL
IC50, TGF-β1 neutralization activity (HEK-Blue TGF-β reporter cells) (TGF-β1 [3]): 1.1 pM

B8: Anti-PD-1 (nVL1-nVH3).IgG4-TGFbRII (other)
heavy (part 1 of 2): B2 VH with D100N
heavy (part 2 of 2): GGGGSGGGGSIPPHVQKSVNNDMIVTDNNGAVKFPQLCKFCDVRFSTCDNQKSCMSNCSITSICEKPQEVCVAVWRKNDENITLETVCHDPKLPYHDFILEDAASPKCIMKEKKKPGETFFMCSCSSDECNDNIIFSEEYNTSNPD
VL: B2 VL with L4M, S91Y, S92N
IC50-inhibition of TGF-β1 induced reporter gene activity (HEK-Blue TGF-β cells, SEAP) (TGF-β1 [2]): 10.7 pM

B10: Anti-PD-1 (nVL1-nVH7).IgG4-TGFbRII (other)
heavy (part 1 of 2): B2 VH with I27F, D100N
heavy (part 2 of 2): B8 heavy (part 2 of 2)
VL: B2 VL with L4M, S91Y, S92N
IC50-inhibition of TGF-β1 induced reporter gene activity (HEK-Blue TGF-β cells, SEAP) (TGF-β1 [2]): 15.1 pM

B12: Anti-PD-1 (nVL1-nVH3).IgG4 (antibody, V domains shown)
VH: B2 VH with D100N
VL: B2 VL with L4M, S91Y, S92N
notes: IgG4
Kd (PD-1 Fc fusion protein): 0.0148 nM

B13: Anti-PD-1(VH7-VL6) IgG4-TGFβRII (other)
heavy: QVQLVQSGVEVKKPGASVKVSCKASGYTFTNYYMYWVRQAPGQGLEWMGGINPSNGGTNFNEKFKNRVTLTTDSSTTTAYMELKSLQFDDTAVYYCARRDYRFDMGFDYWGQGTTVTVSSASTKGPSVFPLAPCSRSTSESTAALGCLVKDYFPEPVTVSWNSGALTSGVHTFPAVLQSSGLYSLSSVVTVPSSSLGTKTYTCNVDHKPSNTKVDKRVESKYGPPCPSCPAPEFLGGPSVFLFPPKPKDTLMISRTPEVTCVVVDVSQEDPEVQFNWYVDGVEVHNAKTKPREEQFNSTYRVVSVLTVLHQDWLNGKEYKCKVSNKGLPSSIEKTISKAKGQPREPQVYTLPPSQEEMTKNQVSLTCLVKGFYPSDIAVEWESNGQPENNYKTTPPVLDSDGSFFLYSRLTVDKSRWQEGNVFSCSVMHEALHNHYTQKSLSLSPGKGGGGSGGGGSIPPHVQKSVNNDMIVTDNNGAVKFPQLCKFCDVRFSTCDNQKSCMSNCSITSICEKPQEVCVAVWRKNDENITLETVCHDPKLPYHDFILEDAASPKCIMKEKKKPGETFFMCSCSSDECNDNIIFSEEYNTSNPD
light: EIVLTQSPATLSLSPGERATLSCRASKGVSTSGYSYLHWYQQKPGQAPRLLIYLASYLESGVPARFSGSGSGTDFTLTISSLEPEDFAVYYCQHSRDLPLTFGGGTKVEIKRTVAAPSVFIFPPSDEQLKSGTASVVCLLNNFYPREAKVQWKVDNALQSGNSQESVTEQDSKDSTYSLSSTLTLSKADYEKHKVYACEVTHQGLSSPVTKSFNRGEC
IC50-inhibition of TGF-β1 induced reporter gene activity (HEK-Blue TGF-β cells, SEAP) (TGF-β1 [2]): 5.6 pM

Continued, values first:

IC50, TGF-β1 neutralization activity (HEK-Blue TGF-β reporter cells) (TGF-β1 [3]): 1.2 pM
B3: Anti-PD-1 (VL5-VH6).IgG4-Linker 2 -TGFbRII (other)
heavy (part 1 of 2): B2 VH
heavy (part 2 of 2): GGGGSGGGSIPPHVQKSVNNDMIVTDNNGAVKFPQLCKFCDVRFSTCDNQKSCMSNCSITSICEKPQEVCVAVWRKNDENITLETVCHDPKLPYHDFILEDAASPKCIMKEKKKPGETFFMCSCSSDECNDNIIFSEEYNTSNPD
VL: B2 VL

IC50, TGF-β1 neutralization activity (HEK-Blue TGF-β reporter cells) (TGF-β1 [3]): 1.9 pM
B6: Anti-PD-1 (VL5-VH6).IgG4-Linker10 -TGFbRII (other)
heavy (part 1 of 2): B2 VH
heavy (part 2 of 2): DPGVLEREDVPTTSYPNPGSIPPHVQKSVNNDMIVTDNNGAVKFPQLCKFCDVRFSTCDNQKSCMSNCSITSICEKPQEVCVAVWRKNDENITLETVCHDPKLPYHDFILEDAASPKCIMKEKKKPGETFFMCSCSSDECNDNIIFSEEYNTSNPD
VL: B2 VL

IC50, TGF-β1 neutralization activity (HEK-Blue TGF-β reporter cells) (TGF-β1 [3]): 1.2 pM
B7: Anti-PD-1 (VL5-VH6).IgG4-Linker8 -TGFbRII (other)
heavy (part 1 of 2): B2 VH
heavy (part 2 of 2): DPGSGGSVPLGSGGSNPGSIPPHVQKSVNNDMIVTDNNGAVKFPQLCKFCDVRFSTCDNQKSCMSNCSITSICEKPQEVCVAVWRKNDENITLETVCHDPKLPYHDFILEDAASPKCIMKEKKKPGETFFMCSCSSDECNDNIIFSEEYNTSNPD
VL: B2 VL

IC50-inhibition of TGF-β1 induced reporter gene activity (HEK-Blue TGF-β cells, SEAP) (TGF-β1 [2]): 54.5 pM
B9: Anti-PD-1 (nVL1-nVH8).IgG4-TGFbRII (other)
heavy (part 1 of 2): EVQLVQSGGGVVQPGRSLRLSCAASGFTFSSYGMHWVRQAPGKGLEWVAVIWYDGSNKYYADSVKGRFTISRDNSKNTLYLQMNSLRAEDTAVYYCATNNDYWGQGTLVTVSS
heavy (part 2 of 2): B8 heavy (part 2 of 2)
VL: B2 VL with L4M, S91Y, S92N

Kd (PD-1 Fc fusion protein): 0.0141 nM
B11: Anti-PD-1 (nVL1-nVH3).IgG4(S108P) (antibody, V domains shown)
VH: B2 VH with D100N
VL: B2 VL with L4M, S91Y, S92N
notes: IgG4 with S108P
